Data published in the DeepSol protein solubility set.

Test: soluble on expression in E. coli; label from the status in PepcDB or PDB records

Sequence | soluble on expression in E. coli
MDIRELVHLGRYAVWNAFEGKEIKVPEALKEKYSRNMGVFTTLKTYPEHNLRGCIGVPLPVYPLWYATVYSSLQAAFQDPRFYPLKKEEFDKVLWEITLLTPPEELKVPKEELPEQIEIGKHGLIIEKGEQKGLLLPQVPVEYGWSPVEFLEYTCLKAGLPKDCWKDKETKVYVFSGEVYQEKEPFGEVERVNLKLEHHHHHH | soluble
MEAIDMPYKITALQPFGVIVEPKHAPIHVNELDIDELRELFLREQLVLLRGFETFEHSEQFADYCERWGEVSVWPFGRVLDLVQKEDPGDHIFDSSYMPMHWDGMYRPQVPEYQIFQCVKAPLPGHGGRTTFSHTMLALQHAPQPDLELWQQVTGHYQRKMEFYHSKTVSPIVMQHPYRDYQVIRYNEPHFEENGDLLNPPDVSLSGITPEQAIEFHKSLRRALYDPRNFYAHEWQTGDIVITDNFSLLHGREAFTSHTPRHIRRVQVLSNPPYNNPSLESYQCPQK | not soluble
MKKVGILNSEISKIVADMGHMDTLAVVDLGFPIPQGVKKVDLVVDRGKPGLMEVIEILLRELKVERIILAKEMDEKSIQTKQELLKLIEKMNGPVEVVTVPHKEFKEMSKNVKGIIRTGADIPYSNVILVGGVIF | soluble
MGSDKIHHHHHHMEINGHEIQFKDNAVFLEENKILILADVHVGMEEFIRRNGVLFPLNEKKELLKRLKNLIVEFKPEKLVFLGDFLHHFQKVPYKVYETIRELNSLLKNYEIIVIRGNHDIMLEYILKENTNFKILDYLLENKILMIHGDKKFDIDFNFDLLIMGHEHPVLEINKQRFPSYLEIVQNDFKILVAPAFSNIASGVKINELESNFMSPYLKKVKKEDIFPIIIGEEVLKFPDLSKIEKFL | not soluble
MAMNVTEIVLKKPVTAHNEMLHVLELREPTYDEIEALGFPFIISGEGSIKLDSQVALKYIPLLAGIPCSSAAQMAKLDIFKTSMQILRFFTQSETGSTSGNDSTMLPGSGN | not soluble
MGSDKIHHHHHHMTITEKRKDFILNSWIKISDDCLKEYLSRELELTDKGQVKSTTTNIITAIVNPDYCVSHKILNGSVFFDTCSQTIRLIGSIKGESEVNLKAPRKWTDQLTNLLGVEIEMNFGIKYSKGRMEEAVIFIANKRRVNLPKLYMKSLKYDGEDYISKLLPKYLGVDDTALNRWIMEHMLIGMVNRVFYPGCKFDEIMVLTGEQGVGKTSFIEKLALLPDWYCSLNNIKGKDAVSNLVGKIVVELEEFVALKNAKTADEAKLFISTRTSTVRLSYERFSADVDRTCIMIATTNDMTFLGDFSGERRYLPVQVHKEKVGLPVMYDQEKFPQLKGVSREEYSKIVKKDFEGAVAQAVYLFENKLYSPVLPVELRKDLNQVIQMHKNENRHVQNFFEFMDWKDTKSDTPNRVCSGEFLSQYPQTNEKVFAELMANEMADKWELEPTDKSRKFKIDGRVRVSKKFYVRKNMPDFIEVTDDIEIPF | not soluble
GSHGLCKNLLQEYAQKMNYAIPLYQCQKVETLGRVTQFTCTVEIGGIKYTGAATRTKKDAEISAGRTALLAIQSDT | soluble
YCKTIPMPDLAYSEISVIGKLIRALPEPCALHLANSSTVRYAQLFTVPPQVEICCNRGVNGIEGSLSTAIGYAAASSKLNFIIIGDLSFFYDMNALWNQNYGANIRILLLNNEGGEIFHTLPGMDKSSRSREFITAEHYTTAKGWAEERGFIYMKVTGEEELEEAMQPFTSPETRMQPMLLEVFTDKEKDTTLLREYYHGLKNKNE | not soluble
MAPQPFDIDTPSLRVFLPAPELATGRAIVACPGGGYGGLAVNHEGYDWAPYFNKQGIALIVLKYRMPHGDRTLPISDAEAAMKMARDSADVWNLNPYDIGIMGSSAGGHLASTIATHTRPELRPNFQILFYPVITMDKSYTHIGSHDNLLGKDAFAELETEFSNEKQVTKETPRAFIAYSDDDKTVPPANGVNYYLGLHKNHVPAVLHIYASGGHGWGIRENFIYLEHHHHHH | not soluble
MATKKCINGHQYDSSIYGDNCPFCPSSHSTRVLDDDTTTGKTQVLGGNMNAETDTIDLGKSGQNNPGGATVIRHVNPTGGTGMASDNRRLVGLLVSYDQNPMGEVYKIYEGRNVIGRAATSDIPIPGDSNMSSQHLLILYREAEGIFWAADQNSSNGTYINGTFVGDRVQLYTNDVIVLGATKMIFLAIPQ | not soluble
KFGIARSGAMDEDALRMANILLGNKQDEAGIELCLKGGKYEFLDENYFVLSGAEFEAKLDNQKIKTCKVYQANKGDILELDLAKIGFRGYLCVAGGFEVKSFLNSKSSDAKMGAGVFEGRALQKDDILNTHNTFIPFNLEARECENPLFKSPKEPIIRVILGTNEDAFTQKGIETFLNTTYKVGLKSDRMAIYAESSESIEHKNSADIISDPAVFGSIQVPKSGIPIILMAGRQSTGGYTKIATVIENDLSLLAQAKLGSSFKFQSISMQEALELYKQREMK | not soluble
IGQVNYNIGFNMADSRSFVDKYPNKSKSLSTYYKDQELGAIWGYVTHGIAKSQSEMDEWTKDNKPSWGSGWGEGDIMFEDLNGDKVINEGANTVDDPGDRKIIGNSTPRFRFGLDLGVEWKGIDFSMFWQGVAKRDLWLDGPMFWGISGGEWQSTGLKEHLDYYRPENTTSVFGPNTNAYFPKMYMSKDMNQKVQTRYLQNGAYARLKNIQLGYTFPTQIINKLHMQKLRVYVSAENVLTITSLPSGFDPETTYSNYSDGNSGKTYPLQTTISFGLNATF | not soluble
MKHLEIELKTLLKKDEYNRLKDQFTGVTPVLQTNYYIDTPDFELREKKVAMRIRTFEDWAELTLKVPQSVGNMEYNQKLQLKDAENYLSKEELPQGLVLDELAKHGIQSKNWQVLGCLTTLRYEMKTAIGLMALDQSRYFDITDYELELEVENHEQGKQDFRQFLEKNQISYQKAPSKLVRFVKSMKNS | not soluble
MGSDKIHHHHHHMSDIVIKAENLGKKYIIGHQAENGRYQALRDVLMHNAQTLWNKTKDLAKGNPLIHGDTLEEVWALKDVSFEIRRGEAVGIIGRNGAGKSTLLKILSRITDPSAGRVTIDGRVASLLEVGTGFHPELSGRENIYLNGTILGMSRKEINQKFDEIVDFAGIEKYLDTPVKRYSSGMYVRLAFAVAAHLEPEILVVDEVLAVGDAEFQKKCLGKMGDVTKEGRTVLFVSHNMVALSALCFRSINLDSGKIIYNGHVDTGVLIYMNGLSNIDNPISYKTRSATGTGEMKIINSFLLRNGKPTLSNVACGDKVDICIEFECCTEKPRFHFALDIYNSKGNRIAYCNSLYTMGVSWVQLPKIFLAKCSFPKLPFFPDEYRVDISIHCNDERADYLQGALSLKVYEGDFYGSGKIPPISGASPIMLLEHKWTIDN | not soluble
MKTIIRYFSFVMGLMLTLPSFAKEKISIMLDWYVNPDHAAIIVAQQKGFFEKNNLEVEIIEPADPALPPKLAAAEKVDLAVSYQPQLYQQVAEGLPLVRVGSLISNPLNSVVVLKKSNLKSLADLKGKKVGYSVSGFEDGLLDTMLHSIGLSNKDVELVNVNWSLSPSLLTGQVDAVIGAFRNFELNQLALEKQEGIAFFPEQYGVPAYDELILVANKNSVTDKKTSAFLTALEQATSYLQAHPNEAWQAFVSYKPNELNTPLNQLAWKDTLPFLANKPRQLDAKRYQQMAEFMQQKGLIPKALALKEYAVEIELEHHHHHH | soluble
MGSDKIHHHHHHMNESSTHDSVADDPTEVSTDTVLDIALSLFSELGFSDAKLEAIAKKSGMSKRMIHYHFGDKRGLYICCLEEAVRRLRPTAEEMYLASAVPVEGVRTIVEAVFHRYVQHPEAVRMLQMENLHHYGKVAEASPLSDQSAITLQLDRLLMLGQDAGAFRPGISAQDVFTLIASIAVFRINSRSTTLNLYGIDMMNGDNTDGMRRMAVDTVLAFLTSNLKSADEDSYLSRPLLSTVTEHVDEEGSYEVAADPFS | not soluble
MGHHHHHHSHIKPGEEVFTSYIDLLYPTEDRNDRLRDSYFFTCECQECTTKDKDKAKVEIRKLSDPPKAEAIRDMVRYARNVIEEFRRAKHYKSPSELLEICELSQEKMSSVFEDSNVYMLHMMYQAMGVCLYMQDWEGALQYGQKIIKPYSKHYPLYSLNVASMWLKLGRLYMGLEHKAAGEKALKKAIAIMEVAHGKDHPYISEIKQEIESH | not soluble
MGSDKIHHHHHHMTSPCPQILWNMTRKCNFSCHYCYFPHDNSPVSDSLPVAALLDFLRSRGGEWLVGLTGGEPFIYPYFVDICSAIAAEHRIGIDTNLSVTPVVKRFARHVPPDRVHDIYAALHIEERERRGAVDAFIRNYHTLAGRGFTVKVNYVVHPSLVQRFAADCEFFGRHGIPLTPRPFKGVYEGRRYPEGYGSTAAAIFTQHPEAGRKTVFNFHGVPCHGGHTFLRMEPDGTVLRCPGDKTVLGNVLSGTVQTESGPTPCRMHRCPCQGVEHILPDAAQQDFIEGVRAYVVGDLPAAQRAFTAAHSRAPAMTQAANNAGVAAFAAGDAQAAACCFARAAADDPVTPLYAANLKLARRAAQPSPPSGTENETPELSLAVNYQRTGN | not soluble
GHMKQSHFFAHLSRLKLINRWPLMRNVRTENVSEHSLQVAMVAHALAAIKNRKFGGNVNAERIALLAMYHDASEVLTGDLPTPVKYFNSQIAQEYKAIEKIAQQKLVDMVPEELRDIFAPLIDEHAYSDEEKSLVKQADALCAYLKCLEELAAGNNEFLLAKTRLEATLEARRSQEMDYFMEIFVPSFHLSLDEISQDSPL | soluble
MGSDKIHHHHHHMNEAELLDPPLETPPRPAVKVRGEPLAELPQDLYIPPDALEVFLEAFEGPLDLLLYLIRKQNLDVLDIPMAALTQQYMAYVEAARATRLELAAEYLLMAAVLIDIKSRMLLPRREQADEPGEADDPRAELVRRLLEYEQMKRAGQQLDALPQAGRDFDTVSVFLPAAAKRLPSVHAEELAAAWLAILSRAKNRTHHRIGRQELSIREHMSRILKRLTPGEFMEFKELFPEASTVHELVVTFLAVLELSKETLLDVTQAEPFAPIYVKLHESAAE | not soluble
MLIEERLAKIQKIVNEQKSISMEALAEQVSVSKDTIRRDLIRLEKEGHLKRTHGGAISVQSEATIYDYAQRIVKHPEKKQAIAQKVWANIPKQASIFFDSSTTVEAAIRAMENSPIHAITNSLSHALLLAQMDQTKITVLPGQLHKQQLFLFGAETVAKVGEFAPDYTLLGVFALSEQGLFIHTEEEGQVKRRMIQQGKQVIALADQTKLNKTGLFKICELTEIDCLVTDTRPDEKFCEQLAQAGVTLIVADELEHHHHHH | soluble
QGHMRATNVTYQAHHVSRNKRGQVVGTRGGFRGCTIWLTGLSGAGKTTVSMALEEYLVCHGIPCYTLDGDNIRQGLNKNLGFSPEDREENVRRIAEVAKLFADAGLVCITSFISPYTQDRNNARQIHEGASLPFFEVFVDAPLHVCEQRDVKGLYKKARAGEIKGFTGIDSEYEKPEAPELVLKTDSCDVNDCVQQVVELLNERDILP | soluble
GPGSMSETIPVSVQCCEGRFELSVDSNHTLRDVLRQFKREVAALDPINLEEYVVNHEGKLLLDDSVTLQTVGVKKDSVFVLVRKACCPAASPEKDEDDM | soluble
AAPSFDCGKPQVEPKKCPGRVVGGCVAHPHSWPWQVSLRTRFGMHFCGGTLISPEWVLTAAHCLEKSPRPSSYKVILGAHQEVNLEPHVQEIEVSRLFLEPTRKDIALLKLSSPAVITDKVIPACLPSPNYVVADRTECFITGWGETQGTFGAGLLKEAQLPVIENKVCNRYEFLNGRVQSTELCAGHLAGGTDSCQGDSGGPLVCFEKDKYILQGVTSWGLGCARPNKPGVYVRVSRFVTWIEGVMRNN | soluble
MGHHHHHHSHGGVGKKEQLSVKKLRVVLFALCCNTEQAAEHFRNPQRRIRRWLRRFQASQGENLEGKYLSFEAEEKLAEWVLTQREQQLPVNEETLFQKATKIGRSLEGGFKISYEWAVRFMLRH | not soluble
